Biological target: His×6-Okp1 (budding yeast, UniProt P53298 1-406)
Assay: pull-down

His×6-Okp1, sequence (P53298 whole entry): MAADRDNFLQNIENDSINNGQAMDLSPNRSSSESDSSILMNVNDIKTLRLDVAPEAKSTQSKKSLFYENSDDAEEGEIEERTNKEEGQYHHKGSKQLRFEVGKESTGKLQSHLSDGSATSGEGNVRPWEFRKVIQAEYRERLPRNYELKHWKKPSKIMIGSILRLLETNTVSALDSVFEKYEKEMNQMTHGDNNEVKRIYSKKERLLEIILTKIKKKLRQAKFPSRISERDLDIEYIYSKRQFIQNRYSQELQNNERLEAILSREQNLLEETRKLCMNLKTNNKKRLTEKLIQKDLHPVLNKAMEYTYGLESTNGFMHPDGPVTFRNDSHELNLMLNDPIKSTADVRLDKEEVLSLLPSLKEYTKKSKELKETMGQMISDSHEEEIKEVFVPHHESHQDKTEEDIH

binding result: binds
B1: GST-Sli15 (1-401) (domain or fragment)
chain: MDWAIKAARKKTQRKPGSTRSIIETLDDLNNLTTDAHSEINQRLYESSEWLRNNVYMNTLKYEDKKMEESLISPENTHNKMDVEFPKMKGEYELSNSQNDAAKDVTKTPRNGLHNDKSITPKSLRRKEVTEGMNRFSIHDTNKSPVEPLNSVKVDANESEKSSPWSPYKVEKVLRESSKTSESPINTKRFDNQTWAAKEEMENEPILQALKKAESVKVKPPPNSGIARSQRRSNMFVPLPNKDPLIIQHIPPTKSSGSIPKVRTVKESPIAFKKKSTINSPAIRAVENSDTAGSTKASSVFDRLSSIPTKSFENKISRGNVGHKYSSSSIDLTGSPMKKVSQKFKSINSTDTDMQEALRDIFSVKNKITKNNSPKGKNSRKSSIPRFDKTSLKLTTHKKLA

— paper doi:10.1101/515924 (bioRxiv, 2019)
